Experimental findings from US20130172262A1 (ALPHABETA, published 2013) are described below.

First the molecules themselves.
B1: recombinant human Bri2(90-236) (other, not shown: small tags and cut ends)
chain: GIKYIKDDVILNEPSADAPAALYQTIEENIKIFEEEEVEFISVPVPEFADSDPANIVHDFNKKLTAYLDLNLDKCYVIPLNTSIVMPPRNLLELLINIKAGTYLPQSYLIHEHMVITDRIENIDHLGFFIYRLCHDKETYKLQRRET

The target of assay [1] is B1. The assay is described as follows: ESI-MS. As to the method:
Protein and peptides were mixed at 22° C. directly before analysis at a final protein concentration of 20 μM and a final peptide concentration of 50 μM. Data was acquired using a QTOF Ultima API mass spectrometer (Waters, Milford, Mass., USA) equipped with a Z-spray source operated in the positive-ion mode. Samples were introduced via nano-electrospray using metal-plated borosilicate glass capillary needles (Proxeon, Denmark). The source temperature was 80° C., the capillary voltage 1.7 kV, and the cone and RF lens 1 potentials were 100 and 38 V, respectively. The mass spectrometer was operated in single-reflector mode at a resolution of 10 000 (full width half maximum definition), and the mass scale was calibrated using myoglobin. Scans were acquired at a rate of 1 scan per 2 sec between 500 and 4000 m/z. The collision gas was argon at 5.2×10⁻⁵ mbar. Mass spectra were smoothed using the Waters MassLynx software.
Mass spectra were recorded to investigate the presence and stoichiometry of protein-peptide complexes in the gas phase.

The next assay concerns the target human Aβ1-40 peptide (human). The assay is described as follows: cell-based or functional assay.

Sequence of human Aβ1-40 peptide (human) (peptide, as listed by the source): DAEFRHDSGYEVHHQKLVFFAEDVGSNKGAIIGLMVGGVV

For the molecule H-KFFEYNGKKFFE-OH (also called synthetic peptide), in assay [1], the binding result is on record as “binds”.

Consider B1, for which the “fold prolongation of the half time of Aβ1-40 aggregation, ThT fluorescence” value with human Aβ1-40 peptide was around 4.5 times.
